Source: patent publication US5728561

Key:
[1] = target: E1-beta of plasmid pCD705, with the C-terminal part of the E1-beta open reading frame in the wrong orientation (Streptomyces avermitilis)
[2] = target: E1-beta subunit of S. avermitilis BCKDH (Streptomyces avermitilis)

“E1-alpha subunit of S. avermitilis BCKDH (enzyme)” was tested. Which E1 BCKDH specific activity [1] did it give?
Its E1 BCKDH specific activity is 0.5 pmol/min/mg.

And the E1 BCKDH specific activity [2]?
Its E1 BCKDH specific activity is 13.7 pmol/min/mg.
